# Results published in patent US12312397B2, “Anti-O2 antibodies and uses thereof” (priority 2016, dated 2025).
# B1: KPN179: Class III anti-O2 antigen human mAb; VH SEQ ID NO: 53, VL SEQ ID NO: 54 (antibody, V domains shown)
# VH: EVQVVESGGGLVKPGGSLRLSCAASGFTFNNAWMNWVRQAPGKGLEWVGRIKRKADGETTDYPASVKGRFTVSRDDSKNTIYLQMNSLKTEDTAIYYCTTRIVTTNDYWGQGTLVTVSS
# VL: QSALTQPPSVSGSPGQSVTISCTGTSSDVGYYDYVSWYQQHHPGKAPKHMIYDVNKRPSGVPDRFSGSKSGNTASLTISGLQAEDEADYYCCSYAGGDTFVFGTGTKVTVL
# modifications: Description of Artificial Sequence: SyntheticKPN179 VH polypeptide; Description of Artificial Sequence: SyntheticKPN179 VL polypeptide
# Legend:
# [1] = system: O2 LPS activation of NF-κB in RAW264.7-lux cells; assay: LPS neutralization assay (NF-κB luciferase, RAW264.7-lux), O2 LPS; format: cell-based, murine; set-up: key to LPS Neut O2: +++: Strongly positive activity; +: Positive activity; +/−: Somewhat positive depending upon the test conditions
# How it was run: (§1)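 Serially diluted mAbs (human IgG1) pre-mixed 1:1 with LPS at 4 °C for 1 hr, then diluted 1:10 onto RAW264.7-lux cells carrying an NF-κB-driven firefly luciferase; 2.5 h at 37 °C. Luminescence read; % inhibition relative to no-antibody and negative-control mAb wells.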
# O2 LPS = assay: Octet binding assay, O2 LPS; set-up: species or system Klebsiella pneumoniae; settings: average; calculated from on-rate and off-rate of Octet sensorgram; read-out: affinity constant (KD) to O2 LPS
# Procedure: The interaction of anti-O2 LPS mAbs with O1 and O2 LPS was further tested in solution phase by Octet platform. This platform provides a powerful tool to measure the rate of biomolecular complex formation and complex stability in a more biologically meaningful setting. Briefly, Protein A coated sensors were coated with 0.2 μg/mL anti-O2 LPS mAbs for 10 minutes before being dipped into solution containing 2 μg/mL O1 or O2 LPS in Kinetics buffer (ForteBio, dilute 10× to 1× with PBS). Changes in the number of molecules bound to the biosensor caused a shift in the interference pattern that was recorded in real time. […] The affinity constant (KD) of Class III mAbs to O2 LPS was calculated based on the on-rate and off-rate from Octet sensorgram.
# [2] = system: O1 LPS activation of NF-κB in RAW264.7-lux cells; assay: LPS neutralization assay (NF-κB luciferase, RAW264.7-lux), O1 LPS; format: cell-based, murine; settings: secondary screening
# How it was run: as §1
# [3] = system: antibiotic resistant Klebsiella pneumoniae strains; format: in vivo
# Procedure: C57/BL6 mice were obtained from Jackson Laboratories and maintained in a special pathogen-free facility. All animal experiments were conducted in accordance with Institutional Animal Care and Use Committee (IACUC) protocol and guidance. K. pneumoniae strains were grown on agar plates overnight and diluted in saline at proper concentration. The inoculum titer was determined by plating a serial dilution of bacteria onto agar plates prior to and post challenge. In acute pneumonia models, C57/BL6 mice were inoculated with 1e4 to 2e8 colony-forming units (CFU) of K. pneumoniae clinical isolates in 50 μl saline intranasally. Anti-K pneumoniae monoclonal antibodies (mAbs) and human IgG1 control antibodies were given 1-24 hour post bacterial challenge (therapeutic dosing). Mouse survival was monitored daily until up to day 8. Survival data of representative experiments were plotted in Graphpad Prism software.
# The lethal pneumonia model as described in Example 9 was used to assess the activity of anti-O2 LPS antibodies in combination with an antibiotic. Both antibiotic and antibody were administered 1 hour after bacterial infection.
# 50 mg/kg of meropenem and 2 mg/kg of antibody were administered at 1, 2, 4, 6, and 24 hour after bacterial infection, as described for the antibody and antibiotic combination studies in Examples 9 and 10.
# O1 LPS = assay: ELISA binding to O1 LPS; set-up: species or system Klebsiella pneumoniae; settings: secondary screening
# How it was run: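 Serial dilutions of monoclonal antibodies bound to LPS-coated plates for 1 h at room temperature, detected with alkaline phosphatase-conjugated anti-human IgG (1 h) and pNPP substrate (30 min). Absorbance read at 405 nm; EC50 values derived from binding curves.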
molecule,measurement,setting,value
B1,LPS Neut O2,[1]; Table 7 summary,+/−
same,neutralization of LPS-O2,[1]; secondary screening,did not show LPS-neutralizing activity
same,Kd,O2 LPS,7.98 nM
same,neutralization of LPS-O1,[2],did not show LPS-neutralizing activity
same,time post infection up to which combination with meropenem protects better than control mAb and meropenem,"[3]; 50 mg/kg meropenem + 2 mg/kg antibody given 1, 2, 4, 6, 24 hour after infection, mice",up to 4 hours
same,protection of combination with meropenem compared to antibody or antibiotic monotherapy,"[3]; meropenem 50 mpk + antibody 0.2 mpk, both 1 hour after infection, mice",significantly improved protection
same,synergy with meropenem in lethal pneumonia model,"[3]; sub-therapeutic antibody dose, % survival of mice",strong synergy
same,binding to LPS-O1,O1 LPS,bind
